Here are results for 1 molecule from paper PMC6331220.

The data set has as its target T1, BsSsbA (Bacillus subtilis, UniProt P37455 1-104).
T1 sequence: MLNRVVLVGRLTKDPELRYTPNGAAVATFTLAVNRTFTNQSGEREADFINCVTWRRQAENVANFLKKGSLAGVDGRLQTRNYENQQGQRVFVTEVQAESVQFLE
Description: X-ray crystallography.

On to TTTTTTTTTTTTTTTTTTTTTTTTTTTTTTTTTTT (ssDNA) [dT35], for which the binding result is recorded as “binds”.
